The values below come from paper PMC8894703, “ZNF191 alters DNA methylation and activates the PI3K‐AKT pathway in hepatoma cells via transcriptional regulation of DNMT1”.

This series deals with ZNF191 (zinc finger protein 191) (UniProt P17028 1-368). As to the kind of experiment: EMSA; LightShift Chemiluminescent EMSA kit (Pierce); buffer, salt, pH and temperature not given; unlabeled oligonucleotides used for competition, outcome not given. The following applies: protein: recombinant; label: 5' biotin; blunt. A general note: A gel shift assay detects complexes by their altered migration in electrophoresis.
ZNF191 (zinc finger protein 191), sequence (P17028 whole entry): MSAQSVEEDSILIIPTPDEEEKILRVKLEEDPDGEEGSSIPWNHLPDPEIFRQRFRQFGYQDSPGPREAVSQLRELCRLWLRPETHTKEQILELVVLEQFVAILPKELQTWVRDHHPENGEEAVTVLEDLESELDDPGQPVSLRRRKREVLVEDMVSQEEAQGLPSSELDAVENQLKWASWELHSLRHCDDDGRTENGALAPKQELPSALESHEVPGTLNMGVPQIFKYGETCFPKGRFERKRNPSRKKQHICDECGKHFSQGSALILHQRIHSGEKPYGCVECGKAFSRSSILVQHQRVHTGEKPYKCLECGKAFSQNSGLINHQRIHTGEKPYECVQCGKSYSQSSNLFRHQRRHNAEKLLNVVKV

B1: DNMT1(nt-240) EMSA probe, 30 bp (dsDNA)
DNA 1: CCTGAAAGAATGAATGAATGAATGCCTCGG
DNA 2: CCGAGGCATTCATTCATTCATTCTTTCAGG
As for B1, the binding result is “binds”.

B2: Mut-DNMT1(nt-240) EMSA probe, 30 bp (dsDNA)
DNA 1: CCTGAAAGTTTGTTTGTTTGTTTGCCTCGG
DNA 2: CCGAGGCAAACAAACAAACAAACTTTCAGG
For the molecule B2, the binding result is listed as “no binding”.
